Data on 18 sequences can be found in a protein production outcome set (Wang et al. 2014).

This data set is described as follows: label from the status in PepcDB records.
Turning to “MTGKGQGGSWVPGVVSATDRGNFHASPTTATVLDIIGRILRAPLSATDTEIETALAQVADACSADVAQVCRAGTTGPLEPIHSWVRDGHIVLNIQDLCKFCPGSDQTGPVMLRDLKDLPEGPARDRLAGMELRSLVAVPMLRHGVLAGRVLLGWQTASSDLRPEDLAALQSLAEAMHAAAERRESERLTTEAAAALQEDRLLLESILRTSTSAILAFDADARIVFANDEAAALLGTDANRLPGCTLEGVGCRLLSREGEPLPPEALPVARAIAEGQTLRDLHHVLMAADGRQRILSINAAPVAAGAATAVRVVATIDDVTGQVSADSALRTALAEAHQLAFFDPLTGLYNRRGIVEVLRDCLQTCAREKAFLSLLYIDLDGMRQVNGTRGHWLGDRVLQALGARLDNLRQDGGDLGRISADEFVLTCGETHPDAAGAVAAAEAEAQRILESLREPFVVDGLTLEVTASIGLAAISAEDSVEGLLKGVDLAVMAAKAAGGDRACAYRADMEQDMVGRVALAQELREAIRRDEFRIYFEPMVSLGETGLEIVGQEALIRWEHPQRGLLAPIAFIPFAEETGFIRDIDRWVLRAAAQELARWAEDPARRHLGVSINISSAQFLSEEFGQMVREVLDETGVDPTRIELEVTEGTLLSNLGLARTTMMDLRSLGISIALDDFGTGFSSLSYLRDLPVDVLKIDRSFLGGLSDSKANRTILEGIIGLASGLGVALVAEGVETPAQFAWLRAKGCRTFQGYLFGRPVDEAQTQLAPEVSALGGHGGDRAVSGQIKG”, the protein production entry is given as “failed”.

Turning to “MTGNSFHVSGYGPDKAGWTRLFARDSMARRLDWPILLAAVALSLMGSLLVYSATRNRTELNQGDQYYFLTRHLLNTGIGLALMVATVWLGHRALRTAVPLLYGFSVFLILLVLTPLGSTINGAHSWIKLPGGFSLQPSEFVKITIILGMAMLLAARVDAGDRPHPDHRTVLQALGLATVPMLIVMLMPDLGSVMVMVIIVLGILLASGASNRWIFGLLGAGTAGALAVWQLGILDDYQIARFAAFANPALDPAGVGYNTNQARIAIGSGGLTGSGLFEGSQTTGRFVPEQQTDFVFTVAGEELGFLGAGLIIALLGVVLWRGCRIARSTPDLYGTVVAAGIVAWFAFQTFENVGMTLGIMPVTGLPLPFVSYGGSSMFAVWIAVGLLQSITVQRPMSA”, the protein production entry is “failed”.

In the case of “MTGQTQGKAVIARERISFWGGFDPQTGRIVDPYSSLRGRDISDCVLILLSSKGSSGTSGMLSLATRAGHAPAAMIQVEMDPVTVMGCLVNNIPLLQASGFDPFEQIQDGDLVRIDGENGTITLTPGQALEHHHHHH”, the protein production entry is reported as “failed”. In the case of “MTGRIVHFEIPFDDGDRARAFYRDAFGWAIAEIPDMDYSMVTTGPVGESGMPDEPGYINGGMMQRGEVTTPVVTVDVESIESALERIESLGGKTVTGRTPVGNMGFAAYFTDSEGNVVGLWETAR” it was “not failed”. In the case of “MTGTYTELIEGSERLSGLTDVDEVIKDLSRLLRKLVKTRWIAVYFFDRERRDFAPARSTGLPASFLPVFREMPLAPDKIPLLKSMLRKRQHLMLTDPGSSDLLTPKLRKLLRNLCVLAVPMVVRTQVIGAVFMARTRDNPPFSDAETAIIRDLVSHAALVVSHMQLFDE” it was “not failed”; in that of “MTGVSDIQEAVAQIKAAGPSKPRLARDPVNQPMINNWVEAIGDRNPIYVDDAAARAAGHPGIVAPPAMIQVWTMMGLGGVRPKDDPLGPIIKLFDDAGYIGVVATNCEQTYHRYLLPGEQVSISAELGDVVGPKQTALGEGWFINQHIVWQVGDEDVAEMNWRILKFKPAGSPSSVPDDLDPDAMMRPSSSRDTAFFWDGVKAHELRIQRLADGSLRHPPVPAVWQDKSVPINYVVSSGRGTVFSFVVHHAPKVPGRTVPFVIALVELEEGVRMLGELRGADPARVAIGMPVRATYIDFPDWSLYAWEPDE”, “failed”; in that of “MTHATSTETIHYVNEDGDQVFEDGGGKLDFTRTVTIDDVTNEVVEYGEWTPVTDDEFAAVTSPDKDGYTPDTSEVAAQKPDMTDGPDGTVKDVEVTVTYTANPAVATITYVDDDENGKLEHHHHHH”, “failed”. In the case of “MTHKVAFSFADGKTLFFPVKANEILLDAALRNGIKIPLDCREGVCGTCQGRCESGQYSQDYVDEEALSPQDLEQRKMLTCQTRVQSDAAFYFDFDSSLCHSADPVQLQGSVIDVRQVSESTAILHLDLGGHQAPLDFLPGQYARLSIPGTGTSRAYSFANRPAADNQLQFLIRLLPDGVMSNYIRERCLVGDTLQLEAPLGAFYLRQISRPLILVAGGTGLSALLAMLEQIVEQGCQQPVHLYYGVRHSRDLCELERIQAHGERLADFRFTPVISDANPDWPGKRGYISEHFDSSELRDQDTDMYVCGPPPMVDSIRIWLQEQQLNRVQLYYERFTESNI” it was “failed”; in that of “MTHVRIVMVNTTLPANIGSALRAMKTMGLSQLVLVAPKTYPHPDIDALAAGAQDLVEKIKIVDTLEQAIQDCHIVFGTSARSRTIPWPLLDARPAAELSMDAVITRQQEIAIVFGREDRGLTNEELALANYHLTIPVNTDYGVLNVAQAIQVICYEMRMATLAQVQNDQASSDSQKMQVTEKIEMDWDEPLVNHQQMEEFYPHLEKMLVDIEFLDPQNPRLLPLRLRRLFGRAQLDRMEYHLLRGIFSRVQALSHGKWKKTALDKEEQSDV”, “failed”; in that of “MTIAPTTLLLFAATALAELVGCYLPYLWLRKGGSVWLLLPTALSLAVFVWLLSLHPEASGRVYAAYGGVYIASALLWLWWVDGVTPTRWDLLGAACCLLGMAVIMFSPRSA”, “failed”.

For “MTIAVDFDGTIVEHRYPRIGEEIPFAVETLKLLQQEKHRLILWSVREGELLDEAIEWCRARGLEFYAANKDYPEEERDHQGFSRKLKADLFIDDRNVGGIPDWGIIYEMIKEKKTFADIYSQQREENTSQKKKRKWLPF”, the protein production result is “not failed”.

For the sequence “MTIGRAKVYATLSKIFYHLFYDEAIPKDCREIIEKFGEIDFNLRSVLVRELRGSVLIKDMPQSLAEVYESVMKDFYERYGFQASELHADHIAVELAFMSKLVEREISLAQQMKEEELYKIRAAQHRFIKAHLQPLVKNLPSAPLLNFVRDFVREDAKYLYSSLVGEKNEGADNN”, the protein production entry was “not failed”. On to “MTIKALFWDIGGVLLTNGWDREQRADVAQRFGLDTDDFTERHRLAAPELELGRMTLAEYLEQVVFYQPRDFTPEDFRAVMEEQSQPRPEVLALARDLGQRYRMYSLNNEGRDLNEYRIRTFGLGEFLLAFFTSSALGVMKPNPAMYRLGLTLAQVRPEEAVMVDDRLQNVQAARAVGMHAVQCVDAAQLREELAALGVR”, for which the protein production entry is given as “not failed”. In the case of “MTIPLIIGGVLLAILILLILVFITKYRTVGPDEALIVTGNWLGGGKNVVTTDDGKKIKIIRGGGTFVVPIMQRAEPLSLLNYKLEVGTRDTYTKQGVPVTVNGVSIIKVGSTIEEVSTAAEQYLGKETEELKVEAKEVLEGHLRAILSSMTVEDAYSNREQFAQKVHEVASTDLKKMGLRIVSFTIKEIMDKNGYLDALGQPQIATVKRDATIANAEREKEARIEKARAEKEAKEAEYQRDAQIAEAEKHKELKVQSYKREQEQARADADLSYELQQAKAQQGVTEEQMRVKIIEREKQIELEEKEIARREKQYDAEVKKKADADRYAVEQSAEAEKVKQIKKADADQYKIEAEARARAEEVRVEGLAKAEIEKAQGQAKAEVQKAQGTAEADVIRLKGLAEAEAKQKIAEAFELYGQAAIMDMVLKMLPSYAKEVASPLSNIDKITVVDTGGGGKNSGAGKVAGYATDLMATMQETLKASSGIDLKELLEGFAGKGAVQQLSSDKPVVSVVEDKKKEVEKDKE” it was “failed”. As for “MTIQDYMLETPVRMREIISNADSLFNEVKRTNLKKIIITGSGTSYHSGVQVQPYLQNLLDIDVVKMYPFMITEDTFKFDNENTLVVGVSQGGSSYSTYNAMKLAEDKGCKIASMAGCKNALIDEISDYILTVNCGEEKSGAKTKGYYCTKLNLMLLGLQIAREKGIISSEKYNEEINKILDAINRFEAVYKLSKQWIERNKEKLVNSKEIRIIGHSDIYGDTLEAALKLLETMRIPVTGYEFEEFIHGIYNAINSDSTIFILDTGKEPRVTKMIDVLSGWTENVFAIGRDVTENDKNLKIDITDNPYYQTFNFIVPIQLICGEIPTLRGVDPSVPKDTRFHMKLGSKKLNK”, the entry is “not failed”. As for “MTIQLLNDRYQVIRTLGAGGFGETYLAEDTYMPSKRRCVVKQLRPIQNNPQIYQLVQERFQREAAILEELGGATEQIPALYAYFSADGQFYLVQEWVEGDTLTGRLQQQGLFTESAIQELLVNLLPVLEYVHSKHIVHRDIKPDNIILRHRDGKPVLIDFGAVRESMGTVVNSQGNPTSSIVIGTPGYMPSEQAAGRPVYSSDLYSLGLTAIYLLTGRQPQTLEIDSQTGEIMWRQYASQMNPILASVLDKAIAYHPRDRYATARAMLDNLQSISSPIPPTQPYFAPPPVVSAPPQPTVPVAPQANVTGNNQKGILFGSLIAGGLIGASVIIGLAFTRTPQPVAENNNTSPVNSITETPVIKATPEVTQPPVTAQPIVPSPQQQVNSSPFPSITSVPIDVNINNNNYLWLSQQAVTDADLDDKDGYTLDIMRNTVFARHGRRFDNPGLQDYFNNQPWYNPIYSPKEFPIKLLTRLEQRNVDYIAAYQKRYNLRHFK”, the entry is “failed”; as for “MTISIDRPAPVSSWRTYRRLLAFAKPYRLLLVAALIAALIEAAGTTGFLALMKPITDETFIYKNAEVSRWLPVQIILLFVVRGVAGYITDMAMGKSARSIARDLRIKVMAKYLRLPGSRFDSEPVPSMLIRLGSDSDQVAQAAVDAVKVMIQQSLQVIGALALMLWHSWQVTLTILVLAPVLAWVMDKVARRYRRISHSIQESGAQLLQAADQTLSSHQEVKIYGAQQTEMERYGALANRNLRLAMKVESTRGISTATVQMIGAIGLSALLFVAGAQALAGRLTAGDFVVLMTSMLTIIPGLKQLTNVQNMVQRGLASAERLFSVLDSPDEPDQGTVPLTRAKGLIEFRDVTARYPGQVNPALADVSFVAQPGTVTAIVGRSGSGKSSLIKLIPRFYEAEAGQILLDGHPVQAYALADLRRQIALVGQQVMLFDGSIADNVAFGEMRNADAGKLERAILGANAMEFVAQLPEGLQSHVGTKGGRLSGGQRQRLAIARAMLKDAPVLILDEATAALDNESERLVQDALHKLMPDRTTLVIAHRLSTIEHADQVLVMDQGRIVERGTHHQLLAQGGLYSHLHGMQFRERQA”, “failed”.

For the sequence “MTITSKLKKRRSLSTLITKIIILVLAPIILGIFVQSYYFSKQIIWQEVDRTKQQTSALILNIFESHFAAIQIHHDSNSKSDVILDFYSERNEEALNYFFLSIDQSDPSHTPEFRFLTDHQGIIWDDGNAHFYGINDSMLDGLTSKVTFSNNWYYVTSITSMGARHLLLRRVPVLEPKTGEVMGYSYNAVVLDNNFALMEKLKNEGNVDNVVLVANDIPVASSLAGDESYKIFDVLKRKETQKKLDQLLIIQTPIEVNAAITNLKLLTVQDNQSVVTLQIQHFLAMLASVIGMIMIALMTKEWIENRVVEELGSLMSYTRSAREEKGFERFGGSDIEEFDHIGSTLESTFEELEAQKRSFRDLFNFALSPIMVWSEAGVLIQINPAARKELVIENDIETMHPVFKGFKDKLVPHLRMAAQGATLTGVNVPIGDKVFRWNLSPIRVDGDISGIIVQGQDITTLIEAEKQSNLARREAEKSAQARADFLAKMSHEIRTPINGILGVAQLLKDSVEAEEQKNQIDVLRHSGEHLLAVLNDILDFSKIEQGKFNIQKHPFSFADTMRTLENIYRPICENKGVELVIENQLDGNVEIFTDQVRLNQILFNLVSNAVKFTPSGCVRLHAELEQFYGADNSVLVVEISDTGIGIESDKLDEMFEPFVQEEATTTREYGGSGLGLTIVKNLVDMLDGDVQVRSQKGQGTTFVVTLPVKDRERVLAPLDSSQRVKPAELFDESLKVLLVEDNHTNAFILKAFCTKYKMQVDWAKDGLEAMEFLKDHSYDLILMDNQLPHLGGIETTKEIRQNLKLGTPIYACTADTAQETSDAFMEAGANYVLLKPIKENALHEAFVDFKQRFLIERT”, the protein production entry is reported as “failed”.
